This is an account of results in the RNAGym collection of RNA variant scans (doi:10.1093/molbev/msab373).

B1: Azoarcus group I ribozyme (parent)
chain: GUGCCUUGCGCCGGGAAACCACGCAAGGGAUGGUGUCAAAUUCGGCGAAACCUAAGCGCCCGCCCGGGCGUAUGGCAACGCCGAGCCAAGCUUCGGCGCCUGCGCCGAUGAAGGUGUAGAGACUAGACGGCACCCACCUAAGGCAAACGCUAUGGUGAAGGCAUAGUCCAGGGAGUGGCGAAAGUCACACAAACCGG

This data set covers variants of B1. The data set is described as follows: reverse-splicing fitness (ratio to wild type); higher = more active; in vitro selection; Mg2+ level not given. In a few lines: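 An in vitro group I ribozyme library with randomized positions was T7-transcribed and gel-purified. In triplicate, 10 pmol RNA in EPPS pH 7.5 was reacted with 50 pmoles of a 30-nt RNA substrate for 1 h at 37 °C across several added MgCl2 levels (1–48 mM), then stopped with EDTA. Products were reverse transcribed from a substrate-complementary primer, PCR-amplified and sequenced (HiSeq 4000). Fitness is a variant's read proportion after selection over that before, normalised to wild type.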
Consider C82U A111U A120U A145G C150U C169A, for which the reverse-splicing fitness turned out to be 0.00562. The figure for C82G A111G A120U C150G C169G U176G is 0.00263.

For C82G A111C A120U C150G C169A, the reverse-splicing fitness was found to be 0.00763.

Turning to C82U A111C A120C C150G C169A, the reverse-splicing fitness is 0.00879.

As to C82U A111C A120C A145C C150U C169G U176G, the reverse-splicing fitness worked out at 0.00566.

Take C82A A120U C150U U176C: the reverse-splicing fitness was found to be 0.0352. Consider A111C A120C A145U C169A, for which the reverse-splicing fitness came out at 0.0119. C82A A145G C150G C169U: the reverse-splicing fitness was found to be 0.00998.

A120U A145C C150G C169A: the reverse-splicing fitness worked out at 0.00349.

In the case of C82G A120G A145G C150G U176A, the reverse-splicing fitness is 0.00691. On to C82U A111G A145G U176G, for which the reverse-splicing fitness was 0.048. C82U A111G A145U C150U C169U U176G: the reverse-splicing fitness amounted to 0.0051. As to C82U A111G A145U C150U C169U U176C, the reverse-splicing fitness is 0.0118. The value for A111C A120G A145C C150G C169G U176C was 0.00609.

Take A111C A120G A145C C150G C169G U176A: the reverse-splicing fitness is 0.00954. For C82G A111U A145G C169U, the reverse-splicing fitness was 0.0131.

As for C82G A145G C169G U176G, the reverse-splicing fitness was determined as 0.00454. Consider A111G A120G A145G C150A C169A, for which the reverse-splicing fitness is 0.0278. On to C82G A111C A120C A145G C150G U176C, for which the reverse-splicing fitness was 0.0113.

Regarding C82G A145G C169A, the reverse-splicing fitness stood at 0.00951. Take C82G A111G A120C C150U U176C: the reverse-splicing fitness amounted to 0.0344. As for C82G A120U A145G C150A C169A U176G, the reverse-splicing fitness was 0.00256.

With C82A A111C C169G, the reverse-splicing fitness was 0.00911.

For the variant C82G A120U A145U C169G U176C, the reverse-splicing fitness stood at 0.00292. The figure for C82U A111G A120C A145U C169G U176C is 0.00823; for A145G C150A C169A U176A it is 0.0203; for A111U A120G C150A C169A it is 0.015. With C82A A111G A120G A145U C150U C169G U176C, the reverse-splicing fitness was determined as 0.0137.

C82G A111C A120C A145C C150G U176A: the reverse-splicing fitness is 0.00528. Turning to A111G A120U A145G, the reverse-splicing fitness was 0.667. C82G A111U A120G A145G C150U U176G: the reverse-splicing fitness was 0.00777.

Regarding C82U A111U A120G A145G C169U U176A, the reverse-splicing fitness was 0.0196. For the variant C82A A111C A145U C150A C169U, the reverse-splicing fitness was 0.0123. On to C82A A111G A145C C150U C169U, for which the reverse-splicing fitness stood at 0.0104. Regarding C82G A111U A120G A145G C169G, the reverse-splicing fitness is 0.0141.

With C82G A111U A120C A145C C169G U176G, the reverse-splicing fitness amounted to 0.00667. With C82G A120G C150U C169G U176C, the reverse-splicing fitness turned out to be 0.0246. For the variant C82U A145G C150G C169A, the reverse-splicing fitness was 0.00942. Take C82U A111U A145G C150U C169A U176G: the reverse-splicing fitness was determined as 0.00684. Turning to A111U A120G A145G C150A C169G U176C, the reverse-splicing fitness turned out to be 0.0294. As to A120C C150G C169G, the reverse-splicing fitness amounted to 0.00811. With C82A A111C A145G C150G C169G U176A, the reverse-splicing fitness was 0.00988. As for C82U A111U A120C A145U C169G, the reverse-splicing fitness was 0.00727. For the variant C82U A120U A145C C169A U176C, the reverse-splicing fitness was found to be 0.0016. The value for A111G A120G A145U C150U C169A U176C was 0.0426; that for A111G C150G C169A was 0.0114. As for C82A A111G A145U C150G C169U, the reverse-splicing fitness turned out to be 0.00964. C82U A120G A145U U176C: the reverse-splicing fitness was 0.0139. In the case of C82U A120U C169U U176A, the reverse-splicing fitness was 0.00362. The figure for C82G A111C A145U C150U C169U is 0.0121; for C82A A111U A120U A145U C150U C169A it is 0.00293; for C82A C169U U176A it is 0.0166. For the variant A120G A145C C150U C169A U176C, the reverse-splicing fitness stood at 0.0659. On to C82G A111C A120U A145U C169A U176C, for which the reverse-splicing fitness came to 0.00242.

Take C82G A111C A145C C150A C169A U176C: the reverse-splicing fitness is 0.00947. On to C82A A111C A120U C150A, for which the reverse-splicing fitness is 0.00696. As for C82A A111U A120G C150A C169G U176C, the reverse-splicing fitness came out at 0.0227. The value for C82A A120G A145G C150U C169U was 0.016.

Regarding C82U A111G A120C C150U C169U, the reverse-splicing fitness amounted to 0.0124.

For C82A A111G A120U A145G C150G C169A U176G, the reverse-splicing fitness came to 0.00369. As for C82G A111G A120G A145U C150G U176G, the reverse-splicing fitness was determined as 0.00436.

For the variant C82A A111U A120U A145C C150U C169A, the reverse-splicing fitness was determined as 0.00277. The value for C82U A120G A145C C169U was 0.0172. Regarding A111G A145C C150G U176C, the reverse-splicing fitness came out at 0.212. With C82A A111G A120U A145G U176C, the reverse-splicing fitness was determined as 0.0165. In the case of C82U A111U A145C C150G C169A, the reverse-splicing fitness was 0.00853.

As for A111U A120U C150A C169G U176G, the reverse-splicing fitness was 0.00254. The value for C82U A120U A145G C150U was 0.137; that for C82U A120G A145G C150G U176C was 0.00995. As to C82G A111G A120C C150G C169U U176G, the reverse-splicing fitness stood at 0.0076. Turning to C82U A111C A120U A145G U176A, the reverse-splicing fitness is 0.00722.

With C82A A111C A120C A145C C150G U176C, the reverse-splicing fitness was 0.00754. The value for C82G A111U A120U A145U C150U C169G U176C was 0.00287; that for C82G A111C A145G C150U C169U U176G was 0.0071; that for C82U A120C A145C C150G C169A was 0.00723.

For C82A A120C A145U C150U C169U U176C, the reverse-splicing fitness turned out to be 0.0137. As for C82U A111C A145U C169A U176C, the reverse-splicing fitness is 0.0139.

For C82G A111C C150G C169U, the reverse-splicing fitness came to 0.00898. The value for A111C A120U A145C C150G C169U was 0.0105; that for A111U A120C A145C C169A was 0.00906; that for C82U A111G A120C A145G C150G C169U was 0.00846. For C82U A120G A145G C150U, the reverse-splicing fitness was 0.0208. With C82G A111G A120C A145U U176C, the reverse-splicing fitness is 0.0434. In the case of C82A A111U A145G C150A C169G U176A, the reverse-splicing fitness worked out at 0.0183.
